# In the DeepSol protein solubility set:
# Assay: soluble on expression in E. coli; label from the status in PepcDB or PDB records
row,Sequence,soluble on expression in E. coli
1,MGSDKIHHHHHHMARSWLDYKTQAWVQWCPGCGDFGILNSIYRAVSELGIDPENLAVVGGIGCSGRTTYYVKGSNFHALHGRAIPVATGVKLANPHLNVIVAGGDGDLMGIGGGHFVALGRRNLNITVLLFDNAVYGLTKGQAAPTLPAWVKTKALSMPNIHDNINPVLLAFAAGYTFIARGYAYHTQQLKELIKTAVRHRGAALVDILQPCPTYNNIMTNKWYEERIYYVDQEEGYDPIIRTPEEFQKKAPAIAAKLMEFGDRIPLGILYWNQTRESFEERLEKIMPGYMSAPPATRRIELEGKPFLHPFDIFKDRLVTP,not soluble
2,MKDLIIIGAGQAGLTMGYYLKQEGYNFLLLEAGKRVGDSWRNRYDSLQLFTPRSYSSLPGMALIGEKNEFPYKDEIATYLEEYARHFQLPVQLQTEVLKIKKEKEIFELHTPTEILQTKKVIIASGAFQQPFIPSVSANLSSHIFQIHSSQYKSPSQIPKGKVLVVGGGNSGMQIAVELAKTHEVTVSISHPLTFLPLQLFGKSIFNLLEKVGLLYAEINTKRGRWFQKRKDPIFGFEGKKLIRNGAIKLQEKVVSASRNNIMFQNGDTYSAESIIWSTGFVQNYNWIEIEQAVNEKGFPNHIKGISPVKGLYYIGLPLEHHHHHH,not soluble
3,MINKLDNLNEEVANQIFTVFQNSYKIEAQLIGTLNFPPLLRSAKDIENSKTLFYGFSENECLAAVIEIVLENKQLDINSLTVDPNYFRKGIANKLITYILDKFYFSEAIVETAVVNTPAINLYKKHGFVEFKRWIPSHGIEKLAMSVKATL,not soluble
4,SMQICDTYNQKHSLFNAMNRFIGAVNNMDQTVMVPSLLRDVPLSEPEIDEVSVEVGGSGGCLEERTTPAPSPGSANESFFAPSRDMYSHYVLLKSIRNDIEWGVLHQPSSPPAGSEESTWKPKDILVGLSHLESADAGEEDLEQQFHYHLRGLHTVLSKLTRKANILTNRYKQEIGFSNWGH,soluble
5,MIEFHNVHKTYRVAGKEIPALHPTNLRVDDGQVFGIIGHSGAGKSTLLRLINRLETPSGGQIVVDGEDVTALDANGLRRFRQQVGMIFQHFNLLASRTVADNVAMPLTLAGDMPRKQIDQRVAELLERVGLSDHAKKYPAQLSGGQKQRVGIARALATKPKILLCDEATSALDPQTTASVLQLLAEINRELKLTIVLITHEMDVIRRVCDQVAVMDAGVIVEQGKVADVFLHPQHSTTKRFVQEDDQVDENEQRDDFAHVQGRIVRLTFQGDATYAPLLGTVARETGVDYSILAGRIDRIKDTPYGQLTLAITGGDMDAAFARFTAADVHMEVLR,not soluble
6,MGSDKIHHHHHHMNSGGYMAIPPGAILPESLPEFKIFMRNREGKYVLWAADGNRVTVAQLAKLSESGVQDVFVDIEESFKYEQYLEANLGKILDNQGITVDRKAAIFSRVSTNVVKAAFETSLKSGAMGMETLQRTQKMIENAMKFITDSNSLPALAKMIGHDYETYEHAMKVTWWTVAFISENPEILTYCQKDEISDAEQISETLRSCGVCALLHDIGKAYVPQEVINKNGPLTEIEWEIMKRHPLSGLAMLLDSELPAFVKKAIVQHHEDFDGGGYPMNLEGTNITVLARVLRIMDVFDAMTSRRPYKDPLSPMKVIQIMIGTPSHPEDNAEPAQDPRDRGMGRCFDHELLGKFIIFIGNVKLD,not soluble
7,MDMAKDKGFFKKAKTGKNKSSATPYAEECAIQIPSEIDNEQMHRMPAGGEEDQYLRIKHMSALIKKYGNLPIITTRETRLPDYWLELFTAIDEGDTPKAHALFHLLPQEDIILRALRAVHSEDYLYQLIKYCIQAKHFGFKQLNADLVVTPKTFEILIKDCATTLFNPAKTHFSFGLPSHHAYTQMGSGFCLINKTAMLIKQAELSSVQPPRFVIIGTDVNRDNGLCDILRHSFSHLSICHIDVFDSRVYPQQDFSYINNEFNSEGVDVGKNIHVWHHNDLSYYAVDLSLTSRKSVGVHPALLFALEQFKASIREAKVKGQKIALYLPTGWDSHEDETAYCGKFVKGRMLGKTAAHQFRFNDGDLSYFYESIFTLYNENKDCIDTIYWGLEGGYDRTMYKRELTLLLQVIEKQLLPQDSNSHNMSCLEHHHHHH,not soluble
8,MTSPITLDALKVLDAIERKKSFAAAADELFRVPSAISYTVNKLEDDLGIALFDRSKRKAELTSVGIMLVEQGRLILKATDELTHMAKQSAEGWELELRICIDSILLFQPIYTLIAQFQQEYPWINIRVTEEVFGGTWDALVAGRSDLIIGATGEPYNSDFSLYKLGNVDFVFVVAKDHALIKEQQPLSNEIIKKYPSVVVADSSRNLPGRSAGLLDGQSRITVSSIEKKIEAQLLGLGVGFLPIHRIKSQLESGQLVILALETTENRNSELCMAWRNDNQGKALAWFVSNIQQMAVKLI,not soluble
9,MILLIDNYDSFTFNLEQYLAEFSEVVVKRNDAADLIKIAALADGIVLSPGPGKPSDAGLLEEVVAKFAKEKPLLGICLGHQAIGEVFGGEVKRAAKIRHGKVSTMRQTAGAIFANLPEEMPVMRYHSLIVDKNTLPDVLEVLAIATDDSEVMAMKVKDYPVYGLQFHPESIGTNDGKQMMENFIHIVEGARENGNLTTKSI,not soluble
10,MGAIAPSSNILAKAMVDAIDFEVAKCIVELGPGTGSFTKEIMKRKKKRTTFILIEINEVFFKKLQKQYEDDASVVVIHGSAENIQRYVEELQIKGVDYVLSGLPFTSLPKEESSRILNNVMESLRENGRFITFQYSLVKKGFIEDFFPDIQLKKVWFNFPPAYVFSCKKSLEHHHHHH,soluble
11,MGHHHHHHSHDFEFIRRVEASEESLDVVFAGRLIKEKGADLLIKAMKLLPDYSCLIVGEGPEKASLIKSAPENVKFAGFMNYGYLIATLKSAKVFVLPSRREGFGIAALEANACGLPVVTINHPMNAVVEIARETGFIASPSPQDIAEKIKIAMESRKKMRRRCVDYARKF,not soluble
12,MAHHHHHHMNFPDSRVLSDEFPRRKYKPSSATRLEDIVLKGLHYGQRKLLLSEIEFLSAYLEGRQAGAKPTLVVYAGAANGSHLPFLFQLFEAVKFVLIDPAPFCDAVREISLNKQGPILDLVQGFCTDELCKQLSSSYGSTYDILLVSDIRSGVPEKQSNRENTLMIMRDNDMQRSWCWTLKAEAALLKFHPPYPPCRDRNSRHYDEADDTPESIEYLDGVRLFGVWAPKSSSELRLCVQGPFLQGTSFPMRRYDCTTHEEQCYFYNTDNRYTRDCAAESGILERYLQLFPSAPYSDPTALSMTISNFLGFPLFLPLDSSFSESDARWVTLLYSTRIPTCLELFTTLRGRVTHTVMKQLAEEWQSATTVPKGVSIDSVELTSEFWKAVCAGDLTEAYSFPNIRWRFANLLISRRRKRSASDRAP,not soluble
13,MEYRMFDIGVNLTSSQFAKDRDDVVACAFDAGVNGLLITGTNLRESQQAQKLARQYSSCWSTAGVHPHDSSQWQAATEEAIIELAAQPEVVAIGECGLDFNRNFSTPEEQERAFVAQLRIAADLNMPVFMHCRDAHERFMTLLEPWLDKLPGAVLHCFTGTREEMQACVAHGIYIGITGWVCDEPTRTGAAGTFAVDSGGKITDRNLEHHHHHH,not soluble
14,MGSDKIHHHHHHYQPEKHAVVKSDRGDGRLLSTYAIVHEMLKDTHPQYAYRSGMSAQEFTQWQDGVRAAMVEIMKFPEIKRQPSPVCVKTEKKEGYILEKWEFYPFPKSVSTFLVLKPEHLKGAVPGVLCIPGSGRTKEGLVGEPGICDKLTEDYNNPKVSMALNMVKEGYVAVAVDNAAAGEASDLECYDKGWNYDYDVVSRFLLELGWSWLGYTSYLDMQVLNWMKAQSYIRKDRIVISGFSLGTEPMMVLGVLDKDIYAFVYNDFLCQTQERAVVMTKPDKENRRPFPNSIRHLIPGYWRYFNFPDVVASLAPRPIIFTEGGLDRDFRLVQSAYAASGKPENAEFHHYPKFADKAVRKDVEHLDEGLDSKTYFEAVNVDPPSHYFKNELVIPWLRKVLK,not soluble
15,GMSNINYVILTVASVDFSYRETMARLMSSYSKDLIDNAGAKGTRFGSIGTGDHAGSLIFIQFYDDLTGYQKALEIQSKSSVFKEIMDSGKANIYLRNISTSLPTKFEQSYEHPKYIVLTRAEAAMSDKDKFLNCINDTASCFKDNGALTLRFGNLLTGSNVGNYLLGVGYPSMEAIEKTYDELLAHSSYKELMTFAKVNMRNIIKIL,soluble
16,MIKFGTGGWRAFIGEEFTKDNVRLVAQALANIIHHEQAANEGFVIGYDRRFLSDKAGRWFAEVLAANGVVVSFIDKFVPTPVVMFKAKAMDCAYSACITASHNPADYNGIKVFIRGGRDADEVITQKIEQQIATLTLQDVKSIDFDQAVNDKLIDIINPMNEFVDSIINFIDIEAIKKANLRVLIDPMFGVAKNALQTVLINGRCDVDVINDGKNPDFGGLMPSPSAATLYRLKHLVKHEGYDIGIGTDGDADRLGIIDEKGNFIHPNEVLILLYYYLLEYKGWKGSVVRNIATTHLLDKIAADHGERCFEVPVGFKHISSQMEADDSLIGGESSGGLTIRGHIKGKDGVFASSLLVEMISVTGKKLSELLTEIYDRYGYAYTAEGDCKFKPAQRDEIYNKVYIEKKLPEFEFDIDKVSYEDGAKVYFKNGGWVIARFSGTEPLLRIFAEMADKDTAERVLQQMKAFLAL,not soluble
17,STQFINKLYASYLREKAYLTAQKHWEKDEIDEQSYQIIQRKYDELLPEAHEILLNMDSLSEVRDTLNKYLTQHQQALLIAGEDSVPFSFKYKDQLGAALYYPDNEGNFIVLVMSRNVYGAEIKE,not soluble
18,MPDIFQQEARGWLRCGAPPFAGAVAGLTTKHGGESKGPFASLNMGLHVGDDRTDVVNNRRRLAEWLAFPLERWVCCEQVHGADIQKVTKSDRGNGAQDFATAVPGVDGLYTDEAGVLLALCFADCVPIYFVAPSAGLVGLAHAGWRGTAGGIAGHMVWLWQTREHIAPSDIYVAIGPAIGPCCYTVDDRVVDSLRPTLPPESPLPWRETSPGQYALDLKEANRLQLLAAGVPNSHIYVSERCTSCEEALFFSHRRDRGTTGRMLAFIGRREEWT,soluble
19,MGETKLFFGPNHPGMHGNFSVHMYVEGDIVKKARPVPGFLHRGFEKLMERRYWYSNISLIPRICVPEPDINEICYAMAIEKIAKVEVPERAQWIRMIVLELARIANHIWTVGGIGGPLGLYTASHWGVADRDRILDIFEALSGARVYHMYIIPGGVRKNMTPKIEEMIWKTLDYIESRLPDYENLIFKNRIVHSRLRGRLILTREQAVEMGVTGVGLRATGVEYDIRKVDPYLFYDRVEFEVPTATDGDAFSRVYLKFKEIPQSIKIIRQALEKMPQADRVNVPIGRGNGLRRIVPKGMAYAHVESTRGEYGFFVVSDGKNKPYRVAVRGASYPQGLYGIEKYLPGTRIEDVPIWLATMDVCAPEIDR,soluble
20,MGSDKIHHHHHHMDNSEEKKLEALGAFEISRKMLALAQKNEKSNIFLNAGRGNPNWIQTLARLAFVRLVQFGVTESKLTINNGIMAGYINTDGIRERLFAFLDPDKNDEDKFLIDAVNYCHTELGLNRDKVVAEWVNGAVANNYPVPDRCLVNTEKIINYFLQELSYKDANLAEQTDLFPTEGGTAAIVYAFHSLAENHLLKKGDKIAINEPIFTPYLRIPELKDYELVEVDLHSYEKNDWEIEPNEIEKLKDPSIKALIVVNPTNPTSKEFDTNALNAIKQAVEKNPKLMIISDEVYGAFVPNFKSIYSVVPYNTMLVYSYSKLFGCTGWRLGVIALNEKNVFDDNIAHLDKVELRQLHKRYSSVVLDPDKMKFIDRLCADSRSIGLYHTAGLSTPQQIMEALFSMTHLLTSTNGGSDDPYIDIARKLVSERYDQLHDAMQAPKDETDTNTHYYSLIDIYRLAEKIYGKEFRDYLTNNFEQVDFLLKLAEKNGVVLVDGVGFGAKPGELRVSQANLPTEDYALIGKQVLELLKEYYEEFKQNN,not soluble
